Measured values taken from the DeepSol protein solubility set.

assay: soluble on expression in E. coli; label from the status in PepcDB or PDB records

Sequence	soluble on expression in E. coli
MEDRFTTRRRANLESIAQRLLEISQKTEEDEANEVGEDDQHPKNVLNILNTITKEGLEKIVNDIIANGTIIDEMFVVLQRFSEKPALSNPIQRPFYSNLDDNVPSFLRNLQKWRLRDELTKSIEQEEKLKAELKHANDQINMIVEHNKLELDALNKINLEAKAQEKIQEEIIQRCMKRVEDLESILETKEQKLNDFEEREYETTCQLTMKHSLELAEKDQKILELEKYIRNNENQDVVALTRELERLRSQATKDEPSTDDSTIKISMAQHRLELEAQAKMIKTLEAELSKRQEINAEQIERLIEERNSEIKNLIREQSKEIHEKNVKIAKFEIKDYANIFRQISKNIFTNKEAPGPSGRPKKRRMVDDPEDLFHNYEDLDDAKFLELAKIIETTKKDVTTLINTEGPSEDVSGNFMEAKKIHGALAQLKEKDQTVSDLKQKTNQNNKRVDQEDPIEEYEYDYNDESDGESVKSETSSWDQIDDIF	not soluble
MGAFDRVKAQVASDSKWTSAPYKGFVAGSPSNTYIDIVSTAFEDATNTMNFARHSKYDEMYSPYLGSFRERHNYTSIAPSLCINKTNRAIEYDLAPHKAYNPRQSEWLLEKDKKYRVRGARNLIYTKSASDISLPPLTRRTFTVPTDTLRHQNQFLYWNGRALGLDYVAPFLRREDYSRHEDRRYQRIYWSPHFIDLLPSCRHSAHLMLSAY	not soluble
MARNNNQVKRDAAGRLFFLLDRQYRLVIQQVVALKPHVLAIAARQGMFVAKAYRFPVAAARHAWLLAALRKAGFSAAPAPMPIGRGGVVEAGGCYWLLTEYVAGARPISFAAWADAADGLHLLERYHTITANIASSKQEAMGLPRAQLYDKWRRRYEEFCRHLPVVETIMDKEDILFTLSWADYCLSTCREHAPELTADSAAIIHGDVASHNFLRTTTGQMYLIDYDAAALASPGLDYCQYANRLLPYIGWSYSTLARFAPLRRWLEKRWFLHALLFPADVFREWRSAAARRRPLVFDRKRRERFVRRLYAMLQ	not soluble
MAGDPMRTYENKEELKAEIEKTFEKYILEFDNIPENLKDKRADEVDRTPAENLAYQVGWTNLVLKWEEDERKGLQVKTPSDKFKWNQLGELYQWFTDTYAHLSLQELKAKLNENINSISAMIDSLSEEELFEPHMRKWADEATKTATWEVYKFIHVNTVAPFGTFRTKIRKWKKIVLLEHHHHHH	soluble
MVDNVLAILRMGDELADLAVDLFDGVTDPTGIAPATTRIVARAEELLSARGNGRDDIRIACGPGCMTCCTVNVSVLVPEAWTIAVWLRQHHDAGEVDRLAVRLTAAARAIRWLDDADRIRSGVTCPFLDERGWCSIHPVRPLMCRALTSTDPAQCRRALESRTSDEEVPLECNLLQKYLMEQAYRSLAAALERRGIDSAGRELVGTVARFLNEPWLADKFLVGRLITLPESLEHHHHHH	not soluble
MTRSGNTRNGKYMGEDKRRYHTITNILQYNLIPDFFTIFAKYCITFKNMTMEKTFAQISELFDQFSKDASLQVEKGNKAAGTRARKASLELEKLLKRFRKESLEASK	not soluble
SLFFFASQIVREENKLLDLLFNLFKDFNSFKLEVKRRDKNFAENSSNFKKYLAVKLFEKYQLKGVINNPEIIANIEILKEHFLVFTER	not soluble
MGSDKIHHHHHHVSGAILSGPEQKPDQDDIETALFRHLAQQGWCLSAPTPLAGGRSNHVWRAGDKVVKLYRSDAHNPLFANDPDRERAMLRALSGTGMAPRFLAHGLWQGQAWLMYTHVCGARWESDPSHVARILSIVHDQAKPRGLPFGCNGSEALAQQTRQIVSAASQGTTLLDRAPQGVVPPTSQLCLIHGDPVPGNIVAHNGTLALIDWQCPQLGDPAEDLALFLSPAMQLAYRGRVLSRQEEAEFVTAYPHPRVVARYYALKPWFHWRMAAYCAWRGETDARDLELAEI	not soluble
MSHRNDSSRKHRKSRSIKNDQHYPTVSFDGAESVDIPADEGKSPVSTHLSLASNPTEFKFMDEIALLKRGRIDKDAPKHPYNRRGQQPMMKKEISVTSAHSNSSLPVRSPAIMTLMGGVPEAEKEYNVGKGGLLKISKMKEGGKRYEVSANERFTVFQQTAGQTCLFTFKA	not soluble
MSHYQCAVCSSIDANPNSLAVNYQCLADSSVVGEFHVLPRHQGYTDLLHGGIASSLLDGAMTHCLLFRDIQALTAQLDVRYHAPIELDEHVTITAHCEGERRGIYQLVAQLLVNNEVRVTAKGKFIRPKLEHHHHHH	soluble
MGSSHHHHHHSSGLEVLFQGPHMETAIWIKNSKLPAVLVAAGAFDAAVQALSKQVGVVKLEPLKKYFTNIYEGCRTYIPSTPCELPAQLGYVRAYDDTVSEDQILPYVPGLDVVNEKMNEGYKNFKLNKPDIAIECFREAIYRITLLMVDDAEDEKLAHKILETAREYILGLSIELERRSLKEGNTVRMLELAAYFTKAKLSPIHRTNALQVAMSQHFKHKNFLQASYFAGEFLKIISSGPRAEQARKIKNKADSMASDAIPIDFDPYAKFDICAATYKPIYEDTPSVSDPLTGSKYVITEKDKIDRIAMISKIGAPASGLRIRV	soluble
MSLGTSWQIGDVTIPNRVVVAPMAGVTNVAFRMICKAFGAGLVECEMISGQGIHYHNQRTLRMMAVNAQEHPMSIQIFGGTQETLVQAAQFVDQQTAADIIDINMGCPVNKVVNTDAGAKWLLDPQKVHDMVAAVVAAVKKPVTVKMRTGWDDHHIFAVDNALAAQRAGAAAVAMHGRTRKQMYQGQADWQILAEVAQHLTIPFMGNGDVRTPQDAQRMLNEVGADAVMIGRAVMGNPWLLQRINHYLATDELLAEPTPQEKTTIALEHLHKLCVAKGPVEGPRDFRNQVAYYLKGIPHTARTKVAITDATEEAVMHDLLVKFLERMTATIEGHHHHHH	not soluble
MIARGSRAPRCPQCRVIDSYCLCAWRPTVAAESGMCLLMYDTEPMKPTNTGWLIADVIKDTYAFGWSRVEIDAHLRALLDDPQWQPYIVFPGEFVAQERVVAEVAREDGKRPLFILLDATWNEARKMFRKSPYLEKFPVLSLAPEQISRYRLRRSKRDDHFCTAEVAALCLELAGDVSASGVLDAYLDVFSAHYLGAKFQRPIDPDDVAHTYLKAFILEHHHHHH	not soluble
MRIEVRLFALYREQAGTDRLALELPEGARVREAQKALEERFPRLRLEGGMAAVNQALAGAETPLKEGDEVAFLPPVSGGQDSYGLTQEPLDLEALVAWATAPEYGAVVSFLGTTRSPNRGEEVAFLEYEAYPEMAEKVMAEILAEMRARWPLGRIALWHRLGRVDPGEASIAIVVSARHRKEAFAACQYAIDRVKQILPVWKKEHRKDGSFWVEGFAPEDKRL	soluble
MGSDKIHHHHHHMKKVLGLVVSNRKLGNSEILVKEIINNIPEECNRELIRLTDLEIKPCKACYRCLQPNNACPVRDDFNFVIEKIREADALIIGVPVYFLGPHGYYKMLTDRLLGSQNYSQDTQGKPCIIVMPYGSEGWEGYSKIACMVMPKLLRMKLVDCWQIHASLPGESLLNPENISYARALGRELFNGREYHAESKECPICGSDLFRLINENQVECPICGSRGILKNNFSPDFSDSDYRRFSDHEMDEHFKGWLLEMKDRFSAEKNHLKELQKGYRNQNWWIKPCRLDEC	not soluble
MGSDKIHHHHHHMTEKIRVAVVGAAGAFGMKHLDGLMNIPDVEVTVVSGTRLEPTQAVAEKYGVENAVVGLDAVLERDDVDAVILATPTGLHASQTQAVLAAGKHVQVEIPLADSIVDAEAALEAAESSNRVAMVGHTRRFNPSHQLVHNRIASGEFHVQQMDVQTYFFRRTNTNAKGEARSWTDHLLWHHAAHTVDLFAYQAGKIVHANAIQGPIHPELGIAMDMSIQLKSESGAICTLSLSFNNNGPFGTFFRYIGDTETYIARYDDLYNGREEPIDVSHVAVSMNGIELQDREFISAIREGREPNSSLRHVIDCYRVLGSLEKQLS	not soluble
